From patent US20260167721A1 (ABLEXIS, published 2026)

Legend:
[1] = biological target: T1, CD3 on human donor PBMC / Pan T effector cells (human, UniProt P07766 23-207; P09693 23-182; P04234 22-171; P20963 22-164); assay: cell-based or functional assay
[2] = biological target: T1, CD3 on human donor PBMC / Pan T …; assay: cell-based or functional assay; remark: listed apart in the source

T1 sequence (P07766 23-207, chain 1 of 4): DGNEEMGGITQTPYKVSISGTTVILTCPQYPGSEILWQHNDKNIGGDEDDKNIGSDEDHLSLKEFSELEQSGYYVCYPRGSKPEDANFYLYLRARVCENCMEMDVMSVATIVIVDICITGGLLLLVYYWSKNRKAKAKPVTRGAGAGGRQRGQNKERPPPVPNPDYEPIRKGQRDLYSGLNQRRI
T1 sequence (P09693 23-182, chain 2 of 4): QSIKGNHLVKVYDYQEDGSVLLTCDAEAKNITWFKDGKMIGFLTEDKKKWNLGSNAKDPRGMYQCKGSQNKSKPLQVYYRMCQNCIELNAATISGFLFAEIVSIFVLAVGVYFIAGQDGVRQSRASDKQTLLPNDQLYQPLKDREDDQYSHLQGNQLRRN
T1 sequence (P04234 22-171, chain 3 of 4): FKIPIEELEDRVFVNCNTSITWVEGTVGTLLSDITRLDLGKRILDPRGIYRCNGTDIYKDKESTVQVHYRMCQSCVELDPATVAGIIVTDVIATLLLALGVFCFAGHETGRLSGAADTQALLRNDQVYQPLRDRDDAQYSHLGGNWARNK
T1 sequence (P20963 22-164, chain 4 of 4): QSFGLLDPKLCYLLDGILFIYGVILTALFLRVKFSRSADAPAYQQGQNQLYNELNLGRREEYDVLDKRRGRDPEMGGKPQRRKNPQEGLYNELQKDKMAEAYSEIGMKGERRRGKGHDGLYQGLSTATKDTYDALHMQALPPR

B1: CD3 × CD33-BspAb73 (bispecific antibody)
chain 1: EVQLVESGGGLVKPGGSLRLSCAASGFTFSSYSMNWVRQAPGKCLEWVSSVNSRGSYIYYADSVKGRFTISRDNAKDSLYLQMNSLRADDTAVYYCARDRRELLLDYWGQGTLVTVSSGGGGSGGGGSGGGGSGGGGSSYELTQPPSVSVSPGQTARITCSGDALPKKYAYWYQQKSGQAPVLVIYEDSKRPSGIPERFSGSSSGTMATLTISGAQVEDEADYYCYSTDSSGNHSWVFGCGTKLTVLDKTHTCPPCPAPEFEGGPSVFLFPPKPKDTLMISRTPEVTCVVVDVSHEDPEVKFNWYVDGVEVHNAKTKPREEQYNSTYRVVSVLTVLHQDWLNGKEYKCKVSNKALPASIEKTISKAKGQPREPQVYTLPPCREEMTKNQVSLWCLVKGFYPSDIAVEWESNGQPENNYKTTPPVLDSDGSFFLYSKLTVDKSRWQQGNVFSCSVMHEALHNHYTQKSLSLSPGK
chain 2: EVQLVQSGAEVKKPGSSVKVSCKASGYTITDSNIHWVRQAPGQSLEWIGYIYPYNGGTDYNQKFKNRATLTVDNPTNTAYMELSSLRSEDTAFYYCVNGNPWLAYWGQGTLVTVSSASTKGPSVFPLAPSSKSTSGGTAALGCLVKDYFPEPVTVSWNSGALTSGVHTFPAVLQSSGLYSLSSVVTVPSSSLGTQTYICNVNHKPSNTKVDKRVEPKSCDKTHTCPPCPAPEFEGGPSVFLFPPKPKDTLMISRTPEVTCVVVDVSHEDPEVKFNWYVDGVEVHNAKTKPREEQYNSTYRVVSVLTVLHQDWLNGKEYKCKVSNKALPASIEKTISKAKGQPREPQVCTLPPSREEMTKNQVSLSCAVKGFYPSDIAVEWESNGQPENNYKTTPPVLDSDGSFFLVSKLTVDKSRWQQGNVFSCSVMHEALHNRFTQKSLSLSPGK
chain 3: DIQLTQSPSTLSASVGDRVTITCRASESLDNYGIRFLTWFQQKPGKAPKLLMYAASNQGSGVPSRFSGSGSGTEFTLTISSLQPDDFATYYCQQTKEVPWSFGQGTKVEVKRTVAAPSVFIFPPSDEQLKSGTASVVCLLNNFYPREAKVQWKVDNALQSGNSQESVTEQDSKDSTYSLSSTLTLSKADYEKHKVYACEVTHQGLSSPVTKSFNRGEC
In the case of B1, the “Cytokine Release Assay (IL2) Donor 0 EC50” value [1] is reported as 0.104 nM, the “Cytokine Release Assay (IL2) Donor 0 gMFI max” value [1] is reported as 29000 gMFI and the “Cytokine Release Assay (IL2) Donor 1 EC50” value [1] is reported as 0.373 nM. For the same binder, the “Cytokine Release Assay (IL2) Donor 1 gMFI max” value [1] was 15900 gMFI, the “Cytokine Release Assay (IL2) Donor 2 EC50” value [1] was 26.5 nM and the “Cytokine Release Assay (IL2) Donor 2 gMFI max” value [1] was 32500 gMFI. The “Cytokine Release Assay (IL2) Donor 3 EC50” value [1] was 0.24 nM, the “Cytokine Release Assay (IL2) Donor 3 gMFI max” value [1] was 42900 gMFI and the “Cytokine Release Assay (TNFα) Donor 0 EC50” value [2] was 0.759 nM. For the same binder, the “Cytokine Release Assay (TNFα) Donor 0 gMFI max” value [2] was 28000 gMFI, the “Cytokine Release Assay (TNFα) Donor 1 gMFI max” value [2] was 4400 gMFI and the “Cytokine Release Assay (TNFα) Donor 2 EC50” value [2] was 1.01 nM. For the same binder, the “Cytokine Release Assay (TNFα) Donor 2 gMFI max” value [2] was 14300 gMFI, the “Cytokine Release Assay (TNFα) Donor 3 EC50” value [2] was 0.653 nM and the “Cytokine Release Assay (TNFα) Donor 3 gMFI max” value [2] was 24200 gMFI.

B2: CD3 × CD33-BspAb72 (bispecific antibody)
chain 1: EVQLVESGGGLVQPGGSLRLSCAASGFTFSSYSMNWVRQAPGKCLEWVSYISSSSSTIYYADSVKGRFTISRDNAKNSLYLQMNSLRDEDTAVYYCARDGPVDYGMDVWGQGTTVTVSSGGGGSGGGGSGGGGSGGGGSSYELTQPPSVSVSPGQTARITCSGDALPKQYTYWYQQKPGQAPVLVIYKDSERPSGIPERFSGSSSGTTVTLTISGVQAEDEADYYCQSADSSGTYRVFGCGTKLTVLDKTHTCPPCPAPEFEGGPSVFLFPPKPKDTLMISRTPEVTCVVVDVSHEDPEVKFNWYVDGVEVHNAKTKPREEQYNSTYRVVSVLTVLHQDWLNGKEYKCKVSNKALPASIEKTISKAKGQPREPQVYTLPPCREEMTKNQVSLWCLVKGFYPSDIAVEWESNGQPENNYKTTPPVLDSDGSFFLYSKLTVDKSRWQQGNVFSCSVMHEALHNHYTQKSLSLSPGK
chain 2: B1 chain 2
chain 3: B1 chain 3
In the case of B2, the “Cytokine Release Assay (IL2) Donor 0 EC50” value [1] is reported as 8.21 nM, the “Cytokine Release Assay (IL2) Donor 0 gMFI max” value [1] is reported as 23000 gMFI and the “Cytokine Release Assay (IL2) Donor 1 EC50” value [1] is reported as 4.28 nM. The “Cytokine Release Assay (IL2) Donor 1 gMFI max” value [1] was 17300 gMFI, the “Cytokine Release Assay (IL2) Donor 2 EC50” value [1] was 2.16 nM and the “Cytokine Release Assay (IL2) Donor 2 gMFI max” value [1] was 16400 gMFI. For the same binder, the “Cytokine Release Assay (IL2) Donor 3 EC50” value [1] was 8.36 nM, the “Cytokine Release Assay (IL2) Donor 3 gMFI max” value [1] was 26300 gMFI and the “Cytokine Release Assay (TNFα) Donor 0 gMFI max” value [2] was 23400 gMFI. The “Cytokine Release Assay (TNFα) Donor 1 gMFI max” value [2] was 4410 gMFI, the “Cytokine Release Assay (TNFα) Donor 2 EC50” value [2] was 16.9 nM and the “Cytokine Release Assay (TNFα) Donor 2 gMFI max” value [2] was 8010 gMFI. For the same binder, the “Cytokine Release Assay (TNFα) Donor 3 EC50” value [2] was 42.5 nM and the “Cytokine Release Assay (TNFα) Donor 3 gMFI max” value [2] was 11200 gMFI.
